Experimental data reported in paper PMC6135743.

Key:
[1] = target: BG505 ΔCT N332 membrane-bound Env trimer (HIV-1 strain BG505 (subtype A)); test: native gel or EMSA
[2] = target: B41 ΔCT membrane-bound Env trimer (HIV-1 strain B41 (subtype B)); test: native gel or EMSA
[3] = target: JR-FL E168K SOSIP.664 soluble Env trimer (HIV-1 strain JR-FL (subtype B)) (UniProt Q75760); test: native gel or EMSA
[4] = target: BG505 N332 SOSIP.664 soluble Env trimer (HIV-1 strain BG505 (subtype A)); test: native gel or EMSA
[5] = target: B41 viral Env trimer from infectious virus (HIV-1 strain B41 (subtype B)); test: native gel or EMSA
[6] = target: BG505 ΔCT T332 membrane-bound Env trimer (HIV-1 strain BG505 (subtype A)); test: cryo-EM structure
[7] = target: BG505 ΔCT T332 membrane-bound Env trimer (HIV-1 strain BG505 (subtype A)); test: native gel or EMSA
[8] = target: JR-FL ΔCT membrane-bound Env trimer (HIV-1 strain JR-FL (subtype B)) (UniProt Q75760); test: native gel or EMSA
[9] = target: BG505 viral Env trimer from infectious virus (HIV-1 strain BG505 (subtype A)); test: native gel or EMSA
[10] = target: B41 SOSIP.664 soluble Env trimer (HIV-1 strain B41 (subtype B)); test: native gel or EMSA
[11] = target: JR-FL viral Env trimer from infectious virus (HIV-1 strain JR-FL (subtype B)); test: native gel or EMSA
[12] = target: B41 viral Env trimer from infectious virus (HIV-1 strain B41 (subtype B))

Work on “BG505 ΔCT N332 membrane-bound Env trimer (complex)” yielded a stoichiometry N [1] of 3.

Molecule “B41 ΔCT membrane-bound Env trimer (complex)” has a stoichiometry N [2] of 3.

“JR-FL E168K SOSIP.664 soluble Env trimer (from UniProt Q75760 1-847) (complex)” was tested, and the stoichiometry N [3] was 3.

For “BG505 N332 SOSIP.664 soluble Env trimer (complex)”, the stoichiometry N [4] was 3.

“B41 viral Env trimer from infectious virus (complex)” gave a stoichiometry N [5] of 3.

PGT151 Fab gave a stoichiometry N (Fabs per trimer) [6] of under 2.

“BG505 ΔCT T332 membrane-bound Env trimer (complex)” was tested, and the stoichiometry N [7] was 3.

“JR-FL ΔCT membrane-bound Env trimer (from UniProt Q75760 1-847) (complex)” was tested, and the stoichiometry N [8] was 3.

Work on “BG505 viral Env trimer from infectious virus (complex)” yielded a stoichiometry N [9] of 3.

“B41 SOSIP.664 soluble Env trimer (complex)” showed a stoichiometry N [10] of 3.

“JR-FL viral Env trimer from infectious virus (complex)” gave a stoichiometry N [11] of 3.

B1: PGT151 monoclonal antibody (bnAb) (antibody, V domains shown)
VH: RVQLVESGGGVVQPGKSVRLSCVVSDFPFSKYPMYWVRQAPGKGLEWVAAISGDAWHVVYSNSVQGRFLVSRDNVKNTLYLEMNSLKIEDTAVYRCARMFQESGPPRLDRWSGRNYYYYSGMDVWGQGTTVTVSS
VL: DIVMTQTPLSLSVTPGQPASISCKSSESLRQSNGKTSLYWYRQKPGQSPQLLVFEVSNRFSGVSDRFVGSGSGTDFTLRISRVEAEDVGFYYCMQSKDFPLTFGGGTKVDLK
In the case of B1, the neutralisation of B41 virus, maximal percent (Supplementary Figure 5) [12] is reported as under 75%.
